Earlier results, collected in patent publication US20200069786A1, “COMPOSITION AND PROCESS FOR PREPARING VACCINE” (TREOS BIO ZRT., priority 2018, published 2020).
Like-named read-outs stand apart in the source and are kept apart here.

Tested on: TSA
[1] = TSA expression rate in Esophageal
[2] = TSA expression rate in LUNG cancer

B1: CT46 (protein, UniProt Q86X24 1-394, looked up)
HORMA domain-containing …: MATAQLQRTPMSALVFPNKISTEHQSLVLVKRLLAVSVSCITYLRGIFPECAYGTRYLDDLCVKILREDKNCPGSTQLVKWMLGCYDALQKKYLRMVVLAVYTNPEDPQTISECYQFKFKYTNNGPLMDFISKNQSNESSMLSTDTKKASILLIRKIYILMQNLGPLPNDVCLTMKLFYYDEVTPPDYQPPGFKDGDCEGVIFEGEPMYLNVGEVSTPFHIFKVKVTTERERMENIDSTILSPKQIKTPFQKILRDKDVEDEQEHYTSDDLDIETKMEEQEKNPASSELEEPSLVCEEDEIMRSKESPDLSISHSQVEQLVNKTSELDMSESKTRSGKVFQNKMANGNQPVKSSKENRKRSQHESGRIVLHHFDSSSQESVPKRRKFSEPKEHI
TSA Expression Rate (ER) (BREAST): 29% | TSA Expression Rate (ER) (LUNG): 47% | Expression Rate (ER) % (TSA expression rate in BLADDER cancer): 20% | Expression Rate (ER) % (TSA expression rate in CRC): 7% | Expression Rate (ER) % [1]: 35%

B2: THEG (protein, UniProt Q9P2T0 1-379, looked up)
Sperm microtubule associated …: MGDSRRRSLGNQPSSEAAGRSEREQDGDPRGLQSSVYESRRVTDPERQDLDNAELGPEDPEEELPPEEVAGEEFPETLDPKEALSELERVLDKDLEEDIPEISRLSISQKLPSTTMTKARKRRRRRRLMELAEPKINWQVLKDRKGRCGKGYAWISPCKMSLHFCLCWPSVYWTERFLEDTTLTITVPAVSRRVEELSRPKRFYLEYYNNNRTTPVWPIPRSSLEYRASSRLKELAAPKIRDNFWSMPMSEVSQVSRAAQMAVPSSRILQLSKPKAPATLLEEWDPVPKPKPHVSDHNRLLHLARPKAQSDKCVPDRDPRWEVLDVTKKVVASPRIISLAKPKVRKGLNEGYDRRPLASMSLPPPKASPEKCDQPRPGL
TSA Expression Rate (ER) (LUNG): 31%

B3: GAGE-7 (protein, UniProt O76087 1-117, looked up)
G antigen 7: MSWRGRSTYYWPRPRRYVQPPEMIGPMRPEQFSDEVEPATPEEGEPATQRQDPAAAQEGEDEGASAGQGPKPEAHSQEQGHPQTGCECEDGPDGQEMDPPNPEEVKTPEEGEKQSQC
TSA Expression Rate (ER) (BREAST): 31% | Expression Rate (ER) % (TSA expression rate in HEAD and NECK): 9%

B4: HSPB9 (protein, UniProt Q9BQS6 1-159, looked up)
Heat shock protein beta-9: MQRVGNTFSNESRVASRCPSVGLAERNRVATMPVRLLRDSPAAQEDNDHARDGFQMKLDAHGFAPEELVVQVDGQWLMVTGQQQLDVRDPERVSYRMSQKVHRKMLPSNLSPTAMTCCLTPSGQLWVRGQCVALALPEAQTGPSPRLGSLGSKASNLTR
TSA Expression Rate (ER) (LUNG): 40% | Expression Rate (ER) % (TSA expression rate in CRC): 40% | Expression Rate (ER) % [1]: 20%

B5: PTTG-1 (protein, UniProt O95997 2-202, looked up)
Securin: ATLIYVDKENGEPGTRVVAKDGLKLGSGPSIKALDGRSQVSTPRFGKTFDAPPALPKATRKALGTVNRATEKSVKTKGPLKQKQPSFSAKKMTEKTVKAKSSVPASDDAYPEIEKFFPFNPLDFESFDLPEEHQIAHLPLSGVPLMILDEERELEKLFQLGPPSPVKMPSPPWESNLLQSPSSILSTLDVELPPVCCDIDI
TSA Expression Rate (ER) (LUNG): 20%

B6: NLRP4 (protein, UniProt Q96MN2 1-994, looked up)
NACHT, LRR and PYD …: MAASFFSDFGLMWYLEELKKEEFRKFKEHLKQMTLQLELKQIPWTEVKKASREELANLLIKHYEEQQAWNITLRIFQKMDRKDLCMKVMRERTGYTKTYQAHAKQKFSRLWSSKSVTEIHLYFEEEVKQEECDHLDRLFAPKEAGKQPRTVIIQGPQGIGKTTLLMKLMMAWSDNKIFRDRFLYTFYFCCRELRELPPTSLADLISREWPDPAAPITEIVSQPERLLFVIDSFEELQGGLNEPDSDLCGDLMEKRPVQVLLSSLLRKKMLPEASLLIAIKPVCPKELRDQVTISEIYQPRGFNESDRLVYFCCFFKDPKRAMEAFNLVRESEQLFSICQIPLLCWILCTSLKQEMQKGKDLALTCQSTTSVYSSFVFNLFTPEGAEGPTPQTQHQLKALCSLAAEGMWTDTFEFCEDDLRRNGVVDADIPALLGTKILLKYGERESSYVFLHVCIQEFCAALFYLLKSHLDHPHPAVRCVQELLVANFEKARRAHWIFLGCFLTGLLNKKEQEKLDAFFGFQLSQEIKQQIHQCLKSLGERGNPQGQVDSLAIFYCLFEMQDPAFVKQAVNLLQEANFHIIDNVDLVVSAYCLKYCSSLRKLCFSVQNVFKKEDEHSSTSDYSLICWHHICSVLTTSGHLRELQVQDSTLSESTFVTWCNQLRHPSCRLQKLGINNVSFSGQSVLLFEVLFYQPDLKYLSFTLTKLSRDDIRSLCDALNYPAGNVKELALVNCHLSPIDCEVLAGLLTNNKKLTYLNVSCNQLDTGVPLLCEALCSPDTVLVYLMLAFCHLSEQCCEYISEMLLRNKSVRYLDLSANVLKDEGLKTLCEALKHPDCCLDSLCLVKCFITAAGCEDLASALISNQNLKILQIGCNEIGDVGVQLLCRALTHTDCRLEILGLEECGLTSTCCKDLASVLTCSKTLQQLNLTLNTLDHTGVVVLCEALRHPECALQVLGLRKTDFDEETQALLTAEEERNPNLTITDDCDTITRVEI
TSA Expression Rate (ER) (LUNG): 38%

B7: LEMD1 (protein, UniProt Q68G75 1-181, looked up)
LEM domain-containing protein …: MVDVKCLSDCKLQNQLEKLGFSPGPILPSTRKLYEKKLVQLLVSPPCAPPVMNGPRELDGAQDSDDSEELNIILQGNIILSTEKSKKLKKWPEASTTKRKAVDTYCLDYKPSKGRRWAARAPSTRITYGTITKERDYCAEDQTIESWREEGFPVGLKLAVLGIFIIVVFVYLTVENKSLFG
TSA Expression Rate (ER) (BREAST): 35% | Expression Rate (ER) % (TSA expression rate in CRC): 94% | Expression Rate (ER) % (TSA expression rate in PROSTATE cancer): 23%

B8: SPAG6 (protein, UniProt O75602 1-509, looked up)
Sperm-associated antigen 6: MSQRQVLQVFEQYQKARTQFVQMVAELATRPQNIETLQNAGVMSLLRTLLLDVVPTIQQTAALALGRLANYNDDLAEAVVKCDILPQLVYSLAEQNRFYKKAAAFVLRAVGKHSPQLAQAIVDCGALDTLVICLEDFDPGVKEAAAWALRYIARHNAELSQAVVDAGAVPLLVLCIQEPEIALKRIAASALSDIAKHSPELAQTVVDAGAVAHLAQMILNPDAKLKHQILSALSQVSKHSVDLAEMVVEAEIFPVVLTCLKDKDEYVKKNASTLIREIAKHTPELSQLVVNAGGVAAVIDCIGSCKGNTRLPGIMMLGYVAAHSENLAMAVIISKGVPQLSVCLSEEPEDHIKAAAAWALGQIGRHTPEHARAVAVTNTLPVLLSLYMSTESSEDLQVKSKKAIKNILQKCTYLPALEPFLYDAPPNILKHVVGQFSKVLPHDSKARRLFVTSGGLKKVQEIKAEPGSLLQEYINSINSCYPEEIVRYYSPGYSDTLLQRVDSYQPLNN
TSA Expression Rate (ER) (BREAST): 21% | TSA Expression Rate (ER) (LUNG): 29%

B9: CALR3 (protein, UniProt Q96L12 20-384, looked up)
Calreticulin-3: TVYFQEEFLDGEHWRNRWLQSTNDSRFGHFRLSSGKFYGHKEKDKGLQTTQNGRFYAISARFKPFSNKGKTLVIQYTVKHEQKMDCGGGYIKVFPADIDQKNLNGKSQYYIMFGPDICGFDIKKVHVILHFKNKYHENKKLIRCKVDGFTHLYTLILRPDLSYDVKIDGQSIESGSIEYDWNLTSLKKETSPAESKDWEQTKDNKAQDWEKHFLDASTSKQSDWNGDLDGDWPAPMLQKPPYQDGLKPEGIHKDVWLHRKMKNTDYLTQYDLSEFENIGAIGLELWQVRSGTIFDNFLITDDEEYADNFGKATWGETKGPEREMDAIQAKEEMKKAREEEEEELLSGKINRHEHYFNQFHRRNEL
TSA Expression Rate (ER) (BREAST): 0% | Expression Rate (ER) % (TSA expression rate in CRC): 16% | Expression Rate (ER) % (TSA expression rate in GASTRIC cancer): 40% | Expression Rate (ER) % (TSA expression rate in Kidney): 80% | Expression Rate (ER) % [2]: 9% | Expression Rate (ER) % (TSA expression rate in MELANOMA): 44%

B10: SPAG8 (protein, UniProt Q99932 1-485, looked up)
Sperm-associated antigen 8: METNESTEGSRSRSRSLDIQPSSEGLGPTSEPFPSSDDSPRSALAAATAAAAAAASAAAATAAFTTAKAAALSTKTPAPCSEFMEPSSDPSLLGEPCAGPGFTHNIAHGSLGFEPVYVSCIAQDTCTTTDHSSNPGPVPGSSSGPVLGSSSGAGHGSGSGSGPGCGSVPGSGSGPGPGSGPGSGPGHGSGSHPGPASGPGPDTGPDSELSPCIPPGFRNLVADRVPNYTSWSQHCPWEPQKQPPWEFLQVLEPGARGLWKPPDIKGKLMVCYETLPRGQCLLYNWEEERATNHLDQVPSMQDGSESFFFRHGHRGLLTMQLKSPMPSSTTQKDSYQPPGNVYWPLRGKREAMLEMLLQHQICKEVQAEQEPTRKLFEVESVTHHDYRMELAQAGTPAPTKPHDYRQEQPETFWIQRAPQLPGVSNIRTLDTPFRKNCSFSTPVPLSLGKLLPYEPENYPYQLGEISSLPCPGGRLGGGGGRMTPF
TSA Expression Rate (ER) (BREAST): 29% | TSA Expression Rate (ER) (LUNG): 43%

B11: CABYR (protein, UniProt O75952 1-493, looked up)
Calcium-binding tyrosine …: MISSKPRLVVPYGLKTLLEGISRAVLKTNPSNINQFAAAYFQELTMYRGNTTMDIKDLVKQFHQIKVEKWSEGTTPQKKLECLKEPGKTSVESKVPTQMEKSTDTDEDNVTRTEYSDKTTQFPSVYAVPGTEQTEAVGGLSSKPATPKTTTPPSSPPPTAVSPEFAYVPADPAQLAAQMLGKVSSIHSDQSDVLMVDVATSMPVVIKEVPSSEAAEDVMVAAPLVCSGKVLEVQVVNQTSVHVDLGSQPKENEAEPSTASSVPLQDEQEPPAYDQAPEVTLQADIEVMSTVHISSVYNDVPVTEGVVYIEQLPEQIVIPFTDQVACLKENEQSKENEQSPRVSPKSVVEKTTSGMSKKSVESVKLAQLEENAKYSSVYMEAEATALLSDTSLKGQPEVPAQLLDAEGAIKIGSEKSLHLEVEITSIVSDNTGQEESGENSVPQEMEGKPVLSGEAAEAVHSGTSVKSSSGPFPPAPEGLTAPEIEPEGESTAE
Expression Rate (ER) % [1]: 17% | Expression Rate (ER) % [2]: 16%

B12: COX6B2 (protein, UniProt Q6YFQ2 1-88, looked up)
Cytochrome c oxidase subunit …: MLDVEAQEPPKGKWSTPPFDPRFPSQNQIRNCYQNFLDYHRCLKTRTRRGKSTQPCEYYFRVYHSLCPISWVESWNEQIKNGIFAGKI
TSA Expression Rate (ER) (LUNG): 24%
